# Laboratory results published in the supplement of paper PMC10567573.
# B1: SPOPL (parent)
# chain: PDDKLTLFCEVSVVQDSVNISGHT
# Variants of: B1
# Assay: protein stability index of a GFP-peptide fusion (GPS, HEK-293T) (PSI 1-6); higher = more stable
# Details: c terminus: a fixed tail appended
# 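Note: lentivirally expressed fusions sorted by FACS into six bins by GFP to DsRed ratio, PSI derived from sequencing read proportions per bin multiplied by bin number.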
row,Variant,protein stability index
1,PDDKLTLLCEVSVVQDSVNISGHT [F8L],2.91
2,PDDKLTLQCEVSVVQDSVNISGHT [F8Q],4.5
3,PDDKLTLPCEVSVVQDSVNISGHT [F8P],4.79
4,PDDKLTLYCEVSVVQDSVNISGHT [F8Y],2.08
5,PDDKLTLGCEVSVVQDSVNISGHT [F8G],4.82
6,PDDKLTLSCEVSVVQDSVNISGHT [F8S],3.96
7,PDDKLTLHCEVSVVQDSVNISGHT [F8H],3.64
8,PDDKLTLKCEVSVVQDSVNISGHT [F8K],3.48
9,PDDKLTLRCEVSVVQDSVNISGHT [F8R],2.77
10,PDDKLTLACEVSVVQDSVNISGHT [F8A],3.65
11,PDDKLTLTCEVSVVQDSVNISGHT [F8T],2.9
12,PDDKLTLICEVSVVQDSVNISGHT [F8I],1.3
13,PDDKLTLWCEVSVVQDSVNISGHT [F8W],1.62
14,PDDKLTLDCEVSVVQDSVNISGHT [F8D],4.94
15,PDDKLTLVCEVSVVQDSVNISGHT [F8V],1.97
16,PDDKLTLECEVSVVQDSVNISGHT [F8E],4.39
17,PDDKLTLCCEVSVVQDSVNISGHT [F8C],3.22
18,PDDKLTLFCEVSCVQDSVNISGHT [V13C],2.57
19,PDDKLTLFCEVSHVQDSVNISGHT [V13H],3.63
20,PDDKLTLFCEVSKVQDSVNISGHT [V13K],3.11
21,PDDKLTLFCEVSFVQDSVNISGHT [V13F],2.03
22,PDDKLTLFCEVSMVQDSVNISGHT [V13M],2.12
23,PDDKLTLFCEVSEVQDSVNISGHT [V13E],4.61
24,PDDKLTLFCEVSAVQDSVNISGHT [V13A],3.35

row,Variant,protein stability index
1,PDDKLTLFCEVSDVQDSVNISGHT [V13D],4.61
2,PDDKLTLFCEVSGVQDSVNISGHT [V13G],4.14
3,PDDKLTLFCEVSLVQDSVNISGHT [V13L],2.02
4,PDDKLTLFCEVSIVQDSVNISGHT [V13I],2.51
5,PDDKLTLFCCVSVVQDSVNISGHT [E10C],2.81
6,PDDKLTLFCHVSVVQDSVNISGHT [E10H],2.12
7,PDDKLTLFCIVSVVQDSVNISGHT [E10I],2.63
8,PDDKLTLFCAVSVVQDSVNISGHT [E10A],2.48
9,PDDKLTLFCMVSVVQDSVNISGHT [E10M],3.02
10,PDDKLTLFCNVSVVQDSVNISGHT [E10N],2.74
11,PDDKLTLFCGVSVVQDSVNISGHT [E10G],2.52
12,PDDKLTLFCVVSVVQDSVNISGHT [E10V],3.33
13,PDDKLTLFCQVSVVQDSVNISGHT [E10Q],2.27
14,PDDKLTLFCWVSVVQDSVNISGHT [E10W],2.53
15,PDDKLTLFCKVSVVQDSVNISGHT [E10K],1.45
16,PDDKLTLFCDVSVVQDSVNISGHT [E10D],2.76
17,PDDKLTLFCRVSVVQDSVNISGHT [E10R],1.94
18,PDDKLTLFCTVSVVQDSVNISGHT [E10T],3.3
19,PDDKLTLFCSVSVVQDSVNISGHT [E10S],1.58
20,PDDKLTLFCLVSVVQDSVNISGHT [E10L],3.02
21,PDDKLTLFCFVSVVQDSVNISGHT [E10F],3.15
22,PDDKLTLFCPVSVVQDSVNISGHT [E10P],3.44
23,PDDKLGLFCEVSVVQDSVNISGHT [T6G],3.19
24,PDDKLNLFCEVSVVQDSVNISGHT [T6N],2.96

row,Variant,protein stability index
1,PDDKLELFCEVSVVQDSVNISGHT [T6E],2.33
2,PDDKLILFCEVSVVQDSVNISGHT [T6I],1.8
3,PDDKLLLFCEVSVVQDSVNISGHT [T6L],1.73
4,PDDKLQLFCEVSVVQDSVNISGHT [T6Q],2.58
5,PDDKLDLFCEVSVVQDSVNISGHT [T6D],2.84
6,PDDKLHLFCEVSVVQDSVNISGHT [T6H],2.4
7,PDDKLALFCEVSVVQDSVNISGHT [T6A],2.15
8,PDDKLWLFCEVSVVQDSVNISGHT [T6W],3.41
9,PDDKLYLFCEVSVVQDSVNISGHT [T6Y],1.25
10,PDDKLKLFCEVSVVQDSVNISGHT [T6K],3.34
11,PDDKLCLFCEVSVVQDSVNISGHT [T6C],1.81
12,PDDKLMLFCEVSVVQDSVNISGHT [T6M],1.79
13,PDDKLSLFCEVSVVQDSVNISGHT [T6S],2.32
14,PDDKLRLFCEVSVVQDSVNISGHT [T6R],2.02
15,PDDKLFLFCEVSVVQDSVNISGHT [T6F],2.98
16,PDDKLPLFCEVSVVQDSVNISGHT [T6P],3.47
17,PDRKLTLFCEVSVVQDSVNISGHT [D3R],2.05
18,PDMKLTLFCEVSVVQDSVNISGHT [D3M],1.93
19,PDYKLTLFCEVSVVQDSVNISGHT [D3Y],1.97
20,PDTKLTLFCEVSVVQDSVNISGHT [D3T],1.51
21,PDQKLTLFCEVSVVQDSVNISGHT [D3Q],1.95
22,PDPKLTLFCEVSVVQDSVNISGHT [D3P],2.5
23,PDVKLTLFCEVSVVQDSVNISGHT [D3V],1.8
24,PDSKLTLFCEVSVVQDSVNISGHT [D3S],1.79

row,Variant,protein stability index
1,PDWKLTLFCEVSVVQDSVNISGHT [D3W],1.73
2,PDNKLTLFCEVSVVQDSVNISGHT [D3N],2.44
3,PDLKLTLFCEVSVVQDSVNISGHT [D3L],2.11
4,PDDKLTGFCEVSVVQDSVNISGHT [L7G],4.28
5,PDDKLTWFCEVSVVQDSVNISGHT [L7W],1.75
6,PDDKLTDFCEVSVVQDSVNISGHT [L7D],4.88
7,PDDKLTNFCEVSVVQDSVNISGHT [L7N],4.32
8,PDDKLTTFCEVSVVQDSVNISGHT [L7T],3.88
9,PDDKLTRFCEVSVVQDSVNISGHT [L7R],3.94
10,PDDKLTAFCEVSVVQDSVNISGHT [L7A],4.2
11,PDDKLTPFCEVSVVQDSVNISGHT [L7P],4.52
12,PDDKLTIFCEVSVVQDSVNISGHT [L7I],1.25
13,PDDKLTKFCEVSVVQDSVNISGHT [L7K],4.78
14,PDDKLTMFCEVSVVQDSVNISGHT [L7M],2.68
15,PDDKLTSFCEVSVVQDSVNISGHT [L7S],3.49
16,PDDKLTHFCEVSVVQDSVNISGHT [L7H],3.79
17,PDDKLTYFCEVSVVQDSVNISGHT [L7Y],2.72
18,PDDKLTVFCEVSVVQDSVNISGHT [L7V],1.92
19,PDDKLTEFCEVSVVQDSVNISGHT [L7E],4.9
20,PDDKLTCFCEVSVVQDSVNISGHT [L7C],2.72
21,PDDKLTFFCEVSVVQDSVNISGHT [L7F],1.81
22,PDDKLTQFCEVSVVQDSVNISGHT [L7Q],4.62
